# Measurements from US20100151486A1, “OSTEOPONTIN FUNCTIONAL EPITOPES, MONOCLONAL ANTIBODIES AGAINST THE EPITOPES AND USES THEREOF” (SHANGHAI NATIONAL ENGINEERING RESEARCH CENTER OF A, priority 2007, published 2010).
# “Also recorded” adds a separate entry of the source.
# B1: 1A12: murine anti-hOPN mAb; VH SEQ ID NO: 4, VL SEQ ID NO: 6; from hybridoma 1A12 (antibody, V domains shown)
# VH: QVQLEQSGPELVKPGASVKMSCKSSGYTFTTYVMHWVKQKPGQGLEWIGYINPYNDGSKYNEKFKGKATLTSDKSSNTAYMELSSLTSEDSAVYYCASHYGGSPAYWGQGTLVTVSA
# VL: DILMTQTPLSLPVSLGDQASISCRSSQSLVHSNGNTYLHWYLQKPGQSPKLLIYKVSNRFSGVPDRFSGSGSGTDFTLKISRVEAEDLGVYFCSQSTHVPWTFGGGTKLEIKR
# modifications: amino acid sequence of the heavy chain variable region in 1A12; amino acid sequence of the light chain variable region in 1A12
# notes: murine anti-hOPN mAb; from hybridoma 1A12
# Columns and labels:
# human OPN protein = target: T1, human OPN protein (Homo sapiens, UniProt P10451); test: Western blot of 1A12 against human OPN protein; assay type: binding
# T1 construct: made in house; host or cells: Pichia (yeast), culture supernatant
# T1 sequence (P10451 17-314): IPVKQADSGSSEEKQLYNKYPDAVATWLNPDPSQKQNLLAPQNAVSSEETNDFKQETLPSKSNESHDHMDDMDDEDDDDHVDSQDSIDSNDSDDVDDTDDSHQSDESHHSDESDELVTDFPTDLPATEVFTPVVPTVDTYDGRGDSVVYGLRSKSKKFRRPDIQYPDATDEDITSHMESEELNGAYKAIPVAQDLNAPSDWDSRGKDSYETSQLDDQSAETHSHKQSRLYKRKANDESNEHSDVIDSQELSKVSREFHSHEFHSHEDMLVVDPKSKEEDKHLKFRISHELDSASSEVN
# Experimental: 100 ug human OPN and an equal volume of Freund's adjuvant were emulsified, and injected intraperitoneally into BALB/C mice. Boost was given every two weeks at the same dose. […] The mouse spleen lymphocytes were fused with NS-1 cells using the classic PEG method. 96-well plate coated with 10 μg/ml human OPN was used for repeated screening by ELISA method to obtain hybridoma cell line 1A12 which was capable of stably expressing anti-human OPN antibody. The strain of 1A12 was amplified, and administrated to BALB/C mice in 5×10^6 cells/mouse (i.p.). The ascites was collected from the 10th day after the injection. The anti-human OPN monoclonal antibody was purified by affinity chromatography using protein A column.
# MDA-MB-435s cells [1] = test: Cell adhesion assay on hOPN-coated plate; assay type: cell-based; conditions: antibody 25 μg/ml; plate coated with 10 μg/ml hOPN; 2 hrs
# Experimental: MDA-MB-435s was purchased from the Institute of Cell Biology of Chinese Academy of Sciences (Shanghai, China), and 23C3D3 was used as the irrelevant antibody.
# A 96-well plate (Greiner) was coated with 10 μg/ml hOPN (prepared in Example 3) or BSA (SIGMA) at 4° C. overnight, and was then blocked with 1% BSA/PBS at 37° C. for 1 hour to block any non-specific binding sites. The MDA-MB-435s cells were detached using 0.2% EDTA and then re-suspended in 0.25% BSA/DMEM at the concentration of 5×10^5 cells/ml. To each well, 100 μl (5×10^4) MDA-MB-435s cells were added in the presence of various anti-OPN antibodies (25 μg/ml) murine anti-human OPN antibody 1A12, the human-murine chimeric antibody c 1A12 or the humanized antibody h1A12 as treatment groups and the irrelevant antibody 23C3 as control (25 μg/ml). After incubation at 37° C. for 2 hrs, the medium was removed and washed twice with PBS gently. The adherent cells were fixed in 1% formaldehyde at 4° C. for 10 minutes, stained with 0.5% crystal violet after washed with PBS and lysed with 2% Triton X-100 (50 μl). The absorbance was measured at 595 nm.
# MDA-MB-435s cells [2] = test: Cell invasion assay (Transwell, Matrigel); assay type: cell-based; conditions: antibody 25 μg/ml; in the presence of hOPN; 24 hours
# Experimental: The assay of cell invasion was carried out using the Transwell system (Corning) with the pore size of […]. The basement membrane of the upper chamber was coated with the artificial matrix gel (Matrigel). After being dried in a flame hood, the matrigel was hydrated with DMEM at 37° C. for 1 hour. MDA-MB-435s cells were detached using 0.2% EDTA and suspended in 0.25% BSA/DMEM at the concentration of 5×10^5 cells/ml. 100 μl of the obtained cell suspension as well as the following 25 μg/nil of antibodies were respectively added into the upper chamber of each well: 1A12 (murine anti-human OPN antibody), c1A12 (human-mouse chimeric antibody), h1A12 (humanized antibody), and 23C3 (irrelevant antibody control). To lower chamber, 0.25% of BSA/DMEM (with or without OPN) was added. The system was then incubated in incubator at 37° C. for 24 hours. After that, the cells remaining in the upper chamber was wiped away using a cotton swab, and the cells penetrate through the basement membrane into the lower chamber were washed with PBS, fixed with 1% formaldehyde, and then stained with 0.5% crystal violet. The cells were counted in the field at 200× magnification under a microscope.
# HUVECs = test: Formation of capillary-like structure in HUVECs on matrigel; assay type: cell-based, human
# Experimental: HUVECs were cultured in the M200 medium containing LCGS to 80% confluence. The matrigel stored at −20° C. was took out the day before experiment and naturally thawed at 4° C. for 3 to 12 hours. To each well of a 96-welt plate was added […] using a pre-cooled pipet with carefully removing the bubbles, wherein the whole procedure was carried on ice. The loaded plate was incubated at 37° C. for 1 hour to gel the matrigel. To each well, 100 μl HUVECs (2×10^4/well) was gently added onto the surface of matrigel. To the treatment groups were further added the anti-hOPN antibodies 1A12, c1A12 and h1A12. The plate was incubated at 37° C. for […], and the formation of the capillary-like structure was observed 6 hours after.
# MDA-MB-435s cells [3] = test: Primary breast tumor growth in nude mice (MDA-MB-435s orthotopic); assay type: in vivo; conditions: 5 mg/kg, 2 times per week; by the 10th week; P<0.05
# Experimental: The MDA-MB-435s cells were detached and re-suspended in serum-free DMEM to the concentration of 5×10^7 cells/ml. Each group of 10 female 4 to 6-week old nude mice were anaesthetized by injection of sodium pentobarbital (ip.). Under sterile condition, the skin was sterilized, and a small incision (0.5-mm) was made in the skin over the lateral thorax below the right limb. The mammary fat pads (mfp) were exposed and MDA-MB-435s cells (5×10^6 in 100 μl DMEM) were orthotopically injected into the mfps. The cut was then closed. The animals were randomly divided into four groups, and each accepted the treatment as specified below from the day after the tumor cell inoculation:
# 1A12: 5 mg/kg, 2 times per week;
# Control antibody: 5 mg/kg, 2 times per week.
# The tumor formation in nude mice was observed once a week, the maxima of the diameter (length) and a perpendicular dimension of the tumor (width) were measured using a caliper, and the volume was calculated as follows: Volume=0.52×length×width^2. The changed tumor volumes were plotted versus the time into a tumor growth curve.
# The tumor size was plotted versus time into a tumor growth curve. […]
# MDA-MB-435s cells [4] = test: Microvessel density (MVD) in tumor, CD31 staining; assay type: in vivo, nude mice; conditions: P<0.01
# Experimental: The tissue of the in situ tumor in mouse was isolated, and speed-frozen in liquid nitrogen. 8 um serial sections were made in a constant cold box frozen section machine, and dried for 5 min, before being fixed with acetone at −20° C. for 30 min, and then stained with IHC. Incubation with the rat anti-mouse monoclonal antibody CD31 (working concentration 1:100) was carried out at 4′C overnight. The secondary antibody was goat anti-rat IgG/PE (working concentration 1:100). After Hochest33258 contrast stain, photographs were taken under the fluorescence microscope.
# The CD31 protein was mainly expressed on the membrane of the vascular endothelial cells, and was expressed in individual vascular endothelial cells and microvessel, intra-tumor microvessel could be visualized with an anti CD31 antibody (FIG. 16).
molecule,measurement,setting,value
B1,binding to the human OPN protein,human OPN protein,specifically bound
same,blocking of the binding between MDA-MB-435s cells and hOPN,MDA-MB-435s cells [1],effectively block
same,blocking of invasion of the basement membrane by MDA-MB-435s,MDA-MB-435s cells [2],effectively block
same,potency of forming the capillary-like structure in HUVECs,HUVECs,reduce
same,tumor size versus irrelevant antibody treated group,MDA-MB-435s cells [3],significantly smaller; also recorded: effectively inhibit tumor development
same,microvessel density (MVD) in tumor versus irrelevant control,MDA-MB-435s cells [4],significantly less; also recorded: effectively inhibit
